# Values joined by “and” are separate entries in the source; they are usually repeats but may differ in a detail not shown here. Identical values can stand only once. *1 amine or outer side, *2 acyl side, *3 side chain or, on linkers, in order; H or OH if unused. Bridges are numbered along the chain shown (N, C = ends). Primed or numbered codes have the meaning given here. Where no end group is shown, it is not given here. [ ]: non-standard residue; d: D form. MSR‑C = 1-[4-[4-[4,6-bis[4-[1-(2-chloroacetyl)-4-piperidyl]piperazin-1-yl]-1,3,5-triazin-2-yl]piperazin-1-yl]-1-piperidyl]-2-chloro-ethanone, O=C(C[*:1])N1CCC(N2CCN(c3nc(N4CCN(C5CCN(C(=O)C[*:2])CC5)CC4)nc(N4CCN(C5CCN(C(=O)C[*:3])CC5)CC4)n3)CC2)CC1; MSR‑F = 1-[4-[4-[4,6-bis[4-[4-(2-chloroacetyl)piperazin-1-yl]phenyl]-1,3,5-triazin-2-yl]phenyl]piperazin-1-yl]-2-chloro-ethanone, O=C(C[*:1])N1CCN(c2ccc(-c3nc(-c4ccc(N5CCN(C(=O)C[*:2])CC5)cc4)nc(-c4ccc(N5CCN(C(=O)C[*:3])CC5)cc4)n3)cc2)CC1; MSR‑B = molecular scaffold reagent B, 2,4,6-tris[4-(bromomethyl)phenyl]-1,3,5-triazine, c1cc(-c2nc(-c3ccc(C[*:2])cc3)nc(-c3ccc(C[*:3])cc3)n2)ccc1C[*:1]; MSR‑B(3) = molecular scaffold reagent 2,4,6-tris[4-(bromomethyl)phenyl]-1,3,5-triazine, c1cc(-c2nc(-c3ccc(C[*:2])cc3)nc(-c3ccc(C[*:3])cc3)n2)ccc1C[*:1]; MSR‑G = scaffold reagent with three vinyl sulfonyl Michael acceptors (C9H15N3O6S3), O=S(=O)(CC[*:1])N1CN(S(=O)(=O)CC[*:2])CN(S(=O)(=O)CC[*:3])C1; MSR‑H = 1-[4-(bromomethyl)phenyl]-N,N-bis[[4-(bromomethyl)phenyl]methyl]methanamine, c1cc(C[*:1])ccc1CN(Cc1ccc(C[*:2])cc1)Cc1ccc(C[*:3])cc1; MSR‑B″ = 2,4,6-tris[4-(bromomethyl)phenyl]-1,3,5-triazine, c1cc(-c2nc(-c3ccc(C[*:2])cc3)nc(-c3ccc(C[*:3])cc3)n2)ccc1C[*:1]; MSR‑E = scaffold reagent with three bromomethyl groups (C27H24Br3N3O3); 1Nal = N[C@@H](Cc1cccc2ccccc12)C(=O)O; Tle = CC(C)(C)[C@H](N)C(=O)O; MSR‑D = not defined here
# B1: Compound I-108 (peptide)
# peptide: CTEYWVDGWVPC
# modifications: also: cyclised via a tyrosine linkage to an unnamed scaffold, places not given here
# notes: also called 1-108
# B2: Compound I-109 (peptide)
# peptide: YTECWVDGWVPY
# modifications: also: cyclised via a tyrosine linkage to an unnamed scaffold, places not given here
# notes: also called 1-109
# Molecular target: T1, MT1-MMP hemopexin domain (UniProt P50281 319-511)
# T1 construct: domain: hemopexin domain; also called MMP14; membrane type 1 metalloprotease
# Assay: MT1-MMP direct binding fluorescence polarization (as titled), n = 2
# Protocol: Example 5: Dissociation Rate Constant Determination of Bicyclic Binders to MT1-MMP Direct Binding Fluorescence Polarization (Anisotropy) Assays Direct Binding Fluorescence Polarization or Anisotropy Assays are performed by titrating a constant concentration of fluorescent tracer (here, the fluoresceinated bicyclic peptide to be studied) with its binding partner (here, the MT1-MMP hemopexin domain). As the concentration of binding partner increases during the titration, the polarization signal changes in proportion to the fraction of bound and unbound material. This allows determination of […] (K_d) quantitatively. Assay data can be fit using standard ligand binding equations.
# Typically, concentrations of the tracer are ideally well below the K_d of the tracer:titrant pair, and concentrations chosen are usually at ~1 nM or less. The titrant (binding partner) concentration is varied from 0.1 nM up to typically 5 μM. The range is chosen such that the maximum change in fluorescent polarization can be observed. Buffers employed are phosphate buffered saline in the presence of 0.01% Tween. Experiments were run in black 384 well low-bind/low volume plates (Corning 3820), and the fluorescent polarization signal was measured using a BMG Pherastar FS plate reader. Fluorescent tracers referred to in the text are bicyclic peptides that have been fluoresceinated using 5,6-carboxyfluorescein. Fluoresceination may be performed on the N-terminal amino group of the peptide, which is separated from the bicycle core sequence by a sarcosine spacer (usually Sar5). This can be done during Fmoc solid phase synthesis or post-synthetically (after cyclization with the molecular scaffold reagent and purification) if the N-terminal amino group is unique to the peptide. Fluoresceination can also be performed on the C-terminus, usually on a Lysine introduced as the first C-terminal residue, which is then separated from the bicycle core sequence by a sarcosine spacer (usually Sar6). Thus, N-terminal tracers can have a molecular format described as Fluo-Gly-Sar5-A(Bicycle-CoreSequence), and (BicycleCoreSequence)-A-Sar6-K (Fluo) for a C-terminally fluoresceinated construct.
row,Binder,Ki
1,"AC[dA]NE[1Nal][dA]CEDFYD[Tle]C (linker 2-8-15 via MSR‑B, also called 1-90) [Compound I-90]",< 0.5 µM
2,"AC[dA]NE[1Nal][dA]CEDFYD[Tle]C (linker 2-8-15 via MSR‑G, also called 1-95) [Compound I-95]",≥ 0.5 µM and < 1 µM
3,"AC[dA]NE[1Nal][dA]CEDFYD[Tle]C (linker 2-8-15 via MSR‑D; not fully specified; reading uncertain, also called 1-92) [Compound I-92]",≥ 0.5 µM and < 1 µM
4,"AC[dA]NE[1Nal][dA]CEDFYD[Tle]C (linker 2-8-15 via MSR‑E, also called 1-93) [Compound I-93]",< 0.5 µM
5,"AC[dA]NE[1Nal][dA]CEDFYD[Tle]C (linker 2-8-15 via MSR‑C, also called 1-91) [Compound I-91]",< 0.5 µM
6,"AC[dA]NE[1Nal][dA]CEDFYD[Tle]C (linker 2-8-15 via MSR‑H, also called 1-96) [Compound I-96]",< 0.5 µM
7,"AC[dA]NE[1Nal][dA]CEDFYD[Tle]C (linker 2-8-15 via MSR‑F, also called 1-94) [Compound I-94]",< 0.5 µM

# Molecular target: human carbonic anhydrase IX (human, UniProt Q16790 38-414)
# Assay: competition fluorescence polarization, tracer SEQ ID NO: 11, n = 2
row,Binder,Ki
1,"CTECWVDGWVPC (linker 1-4-12 via MSR‑B(3) (inferred), also called 1-98) [Compound I-98]",< 0.5 µM
2,B1,< 0.5 µM
3,B2,≥ 0.5 µM and < 1 µM

# Molecular target: T2, EphA2 (UniProt P29317 25-534, limits assumed, biotinylated with EZ-Link Sulfo-NHS-LC-Biotin (sites not given))
# T2 construct: Fc-tagged proteins are also mentioned; also called ephrin type-A receptor 2; biotinylated EphA2
# T2 sequence (P29317 25-534 limits assumed): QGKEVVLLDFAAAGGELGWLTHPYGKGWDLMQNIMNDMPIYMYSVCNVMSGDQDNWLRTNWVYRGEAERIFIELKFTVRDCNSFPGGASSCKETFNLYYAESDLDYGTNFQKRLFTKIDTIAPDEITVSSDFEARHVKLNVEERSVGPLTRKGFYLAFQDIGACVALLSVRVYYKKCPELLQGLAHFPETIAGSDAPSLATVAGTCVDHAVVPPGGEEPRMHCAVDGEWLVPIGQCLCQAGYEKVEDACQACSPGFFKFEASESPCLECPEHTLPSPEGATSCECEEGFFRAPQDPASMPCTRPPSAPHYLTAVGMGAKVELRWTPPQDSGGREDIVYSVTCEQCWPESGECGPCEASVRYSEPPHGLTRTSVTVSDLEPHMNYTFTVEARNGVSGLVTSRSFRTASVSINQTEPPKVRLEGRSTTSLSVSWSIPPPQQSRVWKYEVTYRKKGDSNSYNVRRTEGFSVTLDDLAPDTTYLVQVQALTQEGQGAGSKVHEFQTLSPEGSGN
# Assay: SPR (Biacore), biotinylated EphA2 on streptavidin, peptide as analyte, n = 2
# Protocol: SPR Measurements: Non-Fc fusion proteins were biotinylated with EZ-Link™ Sulfo-NHS-LC-Biotin for 1 hour in 4 mM sodium acetate, 100 mM NaCl, pH 5.4 with a 3× molar excess of biotin over protein. The degree of labelling was determined using a Fluorescence Biotin Quantification-Kit (Thermo) after dialysis of the reaction mixture into PBS. For analysis of peptide binding, a Biacore T200 10 instrument was used utilising a XanTec CMD500D chip. Streptavidin was immobilized on the chip using standard amine-coupling chemistry at 25° C. with HBS—N (10 mM HEPES, 0.15 M NaCl, pH 7.4) as the running buffer. Briefly, the carboxymethyl dextran surface was activated with a 7 min injection of a 1:1 ratio of 0.4 M 1-ethyl-3-(3-dimethylaminopropyl) carbodiimide hydrochloride (EDC)/0.1 M N-hydroxy succinimide (NHS) at a flow rate of 10 μl/min. For capture of streptavidin, the protein was diluted to 0.2 mg/ml in 10 mM sodium acetate (pH 4.5) and captured by injecting 120 μl onto the activated chip surface. Residual activated groups were blocked with a 7 min injection of 1 M ethanolamine (pH 8.5):HBS—N (1:1). Buffer was changed to PBS/0.05% Tween 20 and biotinylated EphA2 was captured to a level of 500-1500 RU using a dilution of protein to 0.2 μM in buffer. A dilution series of the peptides was prepared in this buffer with a final DMSO concentration of 0.5% with a top peptide concentration was 50 or 100 nM and 6 further 2-fold dilutions. The SPR analysis was run at 25° C. at a flow rate of […] with 60 seconds association and 900-1200 seconds dissociation. Data were corrected for DMSO excluded volume effects. All data were double-referenced for blank injections and reference surface using standard processing procedures and data processing and kinetic fitting were performed using Scrubber software, version 2.0c (BioLogic Software).
# Data were fitted using simple 1:1 binding model allowing for mass transport effects where appropriate for binding of Bicycle Drug Conjugates, a Biacore 3000 instrument was used. For biotinylated proteins immobilisation levels were 1500 RU and the top concentration was 100 nM. Otherwise the method was the same as described above using either the CMD500D or a CM5 chip (GE Healthcare).
row,Binder,Kd
1,ADVHCPWGPFWCPVNRPGCA (linker 5-12-19 via MSR‑F; not fully specified) [Compound I-104],< 0.5 µM
2,ADVHCPWGPFWCPVNRPGCA (linker 5-12-19 via MSR‑B″) [Compound I-100],< 0.5 µM
3,ADVHCPWGPFWCPVNRPGCA (linker 5-12-19 via MSR‑C; also: a note names MSR-B as the scaffold) [Compound I-101],< 0.5 µM
4,ADVHCPWGPFWCPVNRPGCA (linker 5-12-19 via MSR‑G; not fully specified) [Compound I-105],< 0.5 µM
5,ADVHCPWGPFWCPVNRPGCA (linker 5-12-19 via MSR‑H; not fully specified) [Compound I-106],< 0.5 µM
